The results in this text go back to US12679878B2, “CRF2 receptor agonists and their use in therapy” (SANOFI, priority 2020, dated 2026).

Starred links: 1 amine or outer side, 2 acyl side, 3 side chain; linkers in the order of their positions; H or OH if unused. Non-standard residues stand in square brackets, D forms with d. Groups on a side chain read outwards from the residue. No end group written: not given here. *: point of attachment. C18 diacid = O=C(O)CCCCCCCCCCCCCCCCC(=O)*; γGlu = O=C(O)[C@H](CCC(=O)[*:2])N[*:1]; AEEA = NCCOCCOCC(=O)O; Aib = CC(C)(N)C(=O)O

The target of this assay is human corticotropin-releasing factor 2α (CRF2 α receptor) (human), Q13324. Description: cell-based or functional assay.
human corticotropin-releasing factor 2α (CRF2 α receptor) (human), Q13324, sequence (Q13324 20-411): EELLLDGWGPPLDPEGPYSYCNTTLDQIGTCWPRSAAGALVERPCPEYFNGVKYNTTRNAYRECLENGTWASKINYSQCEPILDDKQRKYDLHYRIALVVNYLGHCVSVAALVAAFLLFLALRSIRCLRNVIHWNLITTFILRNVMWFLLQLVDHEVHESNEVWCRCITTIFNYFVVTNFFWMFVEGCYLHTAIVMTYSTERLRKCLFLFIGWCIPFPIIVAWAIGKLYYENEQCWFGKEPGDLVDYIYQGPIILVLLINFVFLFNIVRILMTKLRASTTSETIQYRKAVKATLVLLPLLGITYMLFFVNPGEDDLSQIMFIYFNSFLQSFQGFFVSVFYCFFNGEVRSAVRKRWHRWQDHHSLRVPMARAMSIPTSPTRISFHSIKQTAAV

B1: SEQ ID NO: 150 (peptide)
peptide: IVLSLD[dV]PIGLK([AEEA-AEEA-γGlu-C18 diacid])QILLKQERQKK[Aib]RQQAETNKRILERV-NH2
modifications: N-terminus assumed
SMILES: CC[C@H](C)[C@H](N)C(=O)N[C@H](C(=O)N[C@@H](CC(C)C)C(=O)N[C@@H](CO)C(=O)N[C@@H](CC(C)C)C(=O)N[C@@H](CC(=O)O)C(=O)N[C@@H](C(=O)N1CCC[C@H]1C(=O)N[C@H](C(=O)NCC(=O)N[C@@H](CC(C)C)C(=O)N[C@@H](CCCCNC(=O)COCCOCCNC(=O)COCCOCCNC(=O)CC[C@H](NC(=O)CCCCCCCCCCCCCCCCC(=O)O)C(=O)O)C(=O)N[C@@H](CCC(N)=O)C(=O)N[C@H](C(=O)N[C@@H](CC(C)C)C(=O)N[C@@H](CC(C)C)C(=O)N[C@@H](CCCCN)C(=O)N[C@@H](CCC(N)=O)C(=O)N[C@@H](CCC(=O)O)C(=O)N[C@@H](CCCNC(=N)N)C(=O)N[C@@H](CCC(N)=O)C(=O)N[C@@H](CCCCN)C(=O)N[C@@H](CCCCN)C(=O)NC(C)(C)C(=O)N[C@@H](CCCNC(=N)N)C(=O)N[C@@H](CCC(N)=O)C(=O)N[C@@H](CCC(N)=O)C(=O)N[C@@H](C)C(=O)N[C@@H](CCC(=O)O)C(=O)N[C@H](C(=O)N[C@@H](CC(N)=O)C(=O)N[C@@H](CCCCN)C(=O)N[C@@H](CCCNC(=N)N)C(=O)N[C@H](C(=O)N[C@@H](CC(C)C)C(=O)N[C@@H](CCC(=O)O)C(=O)N[C@@H](CCCNC(=N)N)C(=O)N[C@H](C(N)=O)C(C)C)[C@@H](C)CC)[C@@H](C)O)[C@@H](C)CC)[C@@H](C)CC)C(C)C)C(C)C
With B1, the EC50 [nM], 0% HSA was 0.07 nM and the EC50 [nM], 0.1% HSA was 3.99 nM.

B2: SEQ ID NO: 151 (peptide)
peptide: IVLSLD[dV]PIGLK([AEEA-AEEA-γGlu-C18 diacid])QILLKQERQKK[Aib]REQAEKNKRILERV-NH2
modifications: N-terminus assumed
SMILES: CC[C@H](C)[C@H](N)C(=O)N[C@H](C(=O)N[C@@H](CC(C)C)C(=O)N[C@@H](CO)C(=O)N[C@@H](CC(C)C)C(=O)N[C@@H](CC(=O)O)C(=O)N[C@@H](C(=O)N1CCC[C@H]1C(=O)N[C@H](C(=O)NCC(=O)N[C@@H](CC(C)C)C(=O)N[C@@H](CCCCNC(=O)COCCOCCNC(=O)COCCOCCNC(=O)CC[C@H](NC(=O)CCCCCCCCCCCCCCCCC(=O)O)C(=O)O)C(=O)N[C@@H](CCC(N)=O)C(=O)N[C@H](C(=O)N[C@@H](CC(C)C)C(=O)N[C@@H](CC(C)C)C(=O)N[C@@H](CCCCN)C(=O)N[C@@H](CCC(N)=O)C(=O)N[C@@H](CCC(=O)O)C(=O)N[C@@H](CCCNC(=N)N)C(=O)N[C@@H](CCC(N)=O)C(=O)N[C@@H](CCCCN)C(=O)N[C@@H](CCCCN)C(=O)NC(C)(C)C(=O)N[C@@H](CCCNC(=N)N)C(=O)N[C@@H](CCC(=O)O)C(=O)N[C@@H](CCC(N)=O)C(=O)N[C@@H](C)C(=O)N[C@@H](CCC(=O)O)C(=O)N[C@@H](CCCCN)C(=O)N[C@@H](CC(N)=O)C(=O)N[C@@H](CCCCN)C(=O)N[C@@H](CCCNC(=N)N)C(=O)N[C@H](C(=O)N[C@@H](CC(C)C)C(=O)N[C@@H](CCC(=O)O)C(=O)N[C@@H](CCCNC(=N)N)C(=O)N[C@H](C(N)=O)C(C)C)[C@@H](C)CC)[C@@H](C)CC)[C@@H](C)CC)C(C)C)C(C)C
Take B2: the EC50 [nM], 0% HSA came out at 0.08 nM and the EC50 [nM], 0.1% HSA was 3.87 nM.
